Measured values taken from patent US20020094546A1.
One block for each substance: values may come before it.

What was measured:
[1] = target: PDGF DD p35 (p35 form of the 30664188 gene product, dimeric C-terminal fragment) (human); assay: cell-based or functional assay
PDGF AA (human) = PDGF AA (human) (UniProt P04085); assay: cell-based or functional assay
[2] = target: human beta PDGF receptor on human cells that carry both receptors (CCD1070 fibroblasts, MG-63 cells) (human) (UniProt P09619); assay: two-site ELISA for alpha-beta PDGF receptor heterodimers: capture with anti-beta PDGF receptor mAb, detection with polyclonal anti-alpha PDGF receptor; MG-63 lysates after PDGF BB 10 ng/mL, 10 min
human beta PDGF receptor on human cells that carry both receptors (CCD1070 fibroblasts, MG-63 cells) (human), sequence (P09619 33-1106): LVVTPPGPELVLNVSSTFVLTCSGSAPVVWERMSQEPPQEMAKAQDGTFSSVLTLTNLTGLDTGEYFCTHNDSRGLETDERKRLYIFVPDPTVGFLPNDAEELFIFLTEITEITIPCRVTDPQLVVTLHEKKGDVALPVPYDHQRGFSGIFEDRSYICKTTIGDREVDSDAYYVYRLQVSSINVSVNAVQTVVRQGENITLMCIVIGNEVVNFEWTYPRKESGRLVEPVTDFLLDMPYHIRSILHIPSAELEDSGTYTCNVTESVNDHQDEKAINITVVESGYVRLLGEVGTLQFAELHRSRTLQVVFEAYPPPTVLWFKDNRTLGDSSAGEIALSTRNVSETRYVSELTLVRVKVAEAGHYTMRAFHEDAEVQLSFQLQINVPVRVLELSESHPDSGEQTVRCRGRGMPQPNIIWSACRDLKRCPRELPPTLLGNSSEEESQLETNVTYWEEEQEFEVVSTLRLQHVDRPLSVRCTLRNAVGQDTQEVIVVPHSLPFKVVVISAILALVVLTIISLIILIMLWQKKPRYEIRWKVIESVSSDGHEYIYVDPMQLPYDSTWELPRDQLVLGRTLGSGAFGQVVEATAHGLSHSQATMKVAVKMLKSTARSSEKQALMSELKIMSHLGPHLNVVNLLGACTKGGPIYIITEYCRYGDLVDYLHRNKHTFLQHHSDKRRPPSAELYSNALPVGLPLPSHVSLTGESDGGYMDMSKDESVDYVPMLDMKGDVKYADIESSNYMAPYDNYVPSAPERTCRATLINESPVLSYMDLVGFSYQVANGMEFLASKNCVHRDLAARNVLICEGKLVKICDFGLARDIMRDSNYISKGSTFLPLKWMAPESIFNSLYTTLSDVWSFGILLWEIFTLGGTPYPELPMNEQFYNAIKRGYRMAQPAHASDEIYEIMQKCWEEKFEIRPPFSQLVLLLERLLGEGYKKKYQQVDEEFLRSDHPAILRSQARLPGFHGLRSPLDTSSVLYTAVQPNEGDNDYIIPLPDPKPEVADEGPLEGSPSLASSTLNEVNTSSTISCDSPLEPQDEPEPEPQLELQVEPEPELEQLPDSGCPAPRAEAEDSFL

[3] = target: human beta PDGF receptor on human cells that carry both receptors (CCD1070 fibroblasts, MG-63 cells) (human) (UniProt P09619); assay: two-site ELISA for alpha-beta PDGF receptor heterodimers: capture with anti-beta PDGF receptor mAb, detection with polyclonal anti-alpha PDGF receptor; MG-63 lysates after PDGF DD 100 ng/mL, 10 min
[4] = target: alpha PDGF receptor on 32D cells expressing only the alpha receptor (UniProt P16234); assay: competition of unlabeled PDGF DD with ^125I-PDGF AA on 32D alpha receptor bearing cells
alpha PDGF receptor on 32D cells expressing only the alpha receptor, sequence (P16234 24-1089): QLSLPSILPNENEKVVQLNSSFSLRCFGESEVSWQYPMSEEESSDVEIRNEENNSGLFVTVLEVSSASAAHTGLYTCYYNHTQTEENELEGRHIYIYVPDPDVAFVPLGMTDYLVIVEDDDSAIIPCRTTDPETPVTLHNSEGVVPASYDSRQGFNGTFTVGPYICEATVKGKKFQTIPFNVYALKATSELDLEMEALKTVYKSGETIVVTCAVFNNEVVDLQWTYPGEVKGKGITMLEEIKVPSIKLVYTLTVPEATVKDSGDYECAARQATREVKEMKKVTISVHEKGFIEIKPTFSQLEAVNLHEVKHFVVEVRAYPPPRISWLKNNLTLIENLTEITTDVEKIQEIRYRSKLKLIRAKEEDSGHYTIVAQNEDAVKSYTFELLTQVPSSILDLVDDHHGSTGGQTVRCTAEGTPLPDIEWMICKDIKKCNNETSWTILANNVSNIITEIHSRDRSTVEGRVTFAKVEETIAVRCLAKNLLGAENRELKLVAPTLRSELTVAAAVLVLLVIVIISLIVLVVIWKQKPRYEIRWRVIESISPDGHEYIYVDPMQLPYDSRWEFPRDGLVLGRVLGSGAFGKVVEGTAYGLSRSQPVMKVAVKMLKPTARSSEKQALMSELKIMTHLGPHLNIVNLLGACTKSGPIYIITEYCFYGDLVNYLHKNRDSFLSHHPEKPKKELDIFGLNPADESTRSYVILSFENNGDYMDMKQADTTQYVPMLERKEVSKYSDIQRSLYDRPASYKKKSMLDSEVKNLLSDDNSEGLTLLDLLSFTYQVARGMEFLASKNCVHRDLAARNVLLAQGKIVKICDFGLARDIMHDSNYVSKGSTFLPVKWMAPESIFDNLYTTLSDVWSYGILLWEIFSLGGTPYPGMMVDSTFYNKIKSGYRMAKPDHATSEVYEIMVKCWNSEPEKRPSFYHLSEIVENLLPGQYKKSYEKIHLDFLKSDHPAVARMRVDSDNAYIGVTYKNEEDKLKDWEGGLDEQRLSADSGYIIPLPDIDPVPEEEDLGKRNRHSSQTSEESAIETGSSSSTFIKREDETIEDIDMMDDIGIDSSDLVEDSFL

[5] = target: beta PDGF receptor on HR5βR cells expressing only the beta receptor (UniProt P09619); assay: cell-based or functional assay
beta PDGF receptor on HR5βR cells expressing only the beta receptor, sequence (P09619 33-1106 limits assumed): as the sequence (P09619 33-1106) above

BrdU incorporation OD-blank, CCD1070 cells, 3066 + betaR Fc (3066 alone 0.501; + MOPC21 0.456; starve 0.0303) [1]: 0.324 OD-blank | BrdU incorporation OD-blank, NIH/3T3 cells, 3066 + betaR Fc (3066 alone 0.902; + MOPC21 0.892; starve 0.0055) [1]: 0.0365 OD-blank | BrdU incorporation OD-blank, CCD1070 cells, AA + betaR Fc (AA alone 0.2705; + MOPC21 0.227) (PDGF AA (human)): 0.248 OD-blank | BrdU incorporation OD-blank, NIH/3T3 cells, AA + betaR Fc (AA alone 0.931; + MOPC21 0.992) (PDGF AA (human)): 0.942 OD-blank
Substance: soluble beta PDGF receptor-IgFc fusion (R&D Systems) (from UniProt P09619 33-530)

Increase mODmin^-1 (650) (mODmin^-1 (650)) [2]: 2.3 | Increase mODmin^-1 (650) (mODmin^-1 (650)) [3]: 12.5
Substance: human alpha PDGF receptor on human cells that carry both receptors (CCD1070 fibroblasts, MG-63 cells) (from UniProt P16234 24-1089)

highest competitor concentration tested, no competition seen [4]: > 250 nM | lowest concentration at which beta PDGF receptor phosphorylation was detected, HR5 cells [5]: 10 ng/mL
Substance: PDGF DD p35 (p35 form of the 30664188 gene product, dimeric C-terminal fragment) (ligand)
